Source: PMC10593477 (Frontiers in Oncology, 2023)

Tests used:
[1] = biological target: the molecule itself; assay: SEC; Superdex 200 Increase 10/300 GL; 200 μg of filtered antibody; DPBS, 0.5 mL/min; size from molecular weight calibration curves
recombinant uPAR-Biotin = biological target: T1, recombinant uPAR-Biotin (human, UniProt Q03405 23-305, biotin); assay: BLI; BLItz; streptavidin biosensors coated with 16.7 μg/mL recombinant uPAR-Biotin; 400nM, 200nM and 100nM of VH, VH-Fc, DbTE, association 2 min; dissociation in DPBS 4 min; conditions: both partners purified
T1 construct: May be one of the bought proteins (uPAR-His or uPAR-Fc) after biotinylation
T1 sequence (Q03405 23-305): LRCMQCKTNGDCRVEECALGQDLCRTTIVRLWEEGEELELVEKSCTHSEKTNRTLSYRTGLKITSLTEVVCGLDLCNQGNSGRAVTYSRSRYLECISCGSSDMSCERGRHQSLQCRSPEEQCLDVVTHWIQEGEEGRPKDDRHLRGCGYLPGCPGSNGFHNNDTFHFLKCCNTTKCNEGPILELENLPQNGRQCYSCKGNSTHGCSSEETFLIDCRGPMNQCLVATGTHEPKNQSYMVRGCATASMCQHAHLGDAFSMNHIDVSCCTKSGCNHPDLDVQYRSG

[2] = biological target: T2, Human uPAR-His recombinant protein (human, UniProt Q03405 23-305); assay: ELISA; uPAR-His coated at 50 ng/well at 4°C overnight; 3-fold serially diluted binders 1 hour at 37°C; VH detected by anti-FLAG M2-HRP, VH-Fc or DbTE by HRP goat anti-human IgG1 Fc; conditions: both partners purified
T2 construct: also called recombinant human uPAR; CD87; source: bought: R&D system
T2 sequence (Q03405 23-305): as above

Row | Binder | stoichiometry N [1] | Kd (recombinant uPAR-Biotin) [nM] | koff (recombinant uPAR-Biotin) [s⁻¹] | kon (recombinant uPAR-Biotin) [M⁻¹ s⁻¹] | EC50 [2] [nM]
1 | VH 115 (VHH, Human single VH domain antibody (not a camelid VHH); source: E.coli TopF expression system, purified on Ni-NTA columns) VHH: EVQLVESGGGLVQPGGSLRLSCKGSGFTFGDYAIGWVRQAPGQRLEWIGWINTNSGSPKYAQGFTGRFTISRDNSKNTLYLQMNSLRAEDTAVYYCATDVVVPWGQGSQVTVSS | 2 | 1.7 | 3.6e-05 | 21000 | 34.2 ± 3.5
2 | VH-Fc 115 (Fc fusion, human, VH cloned into the pcDNA-IgG1 Fc vector; source: Expi293, transiently transfected, purified by protein A resin; not shown: Fc (human IgG1), C-terminal, kept) VH: EVQLVESGGGLVQPGGSLRLSCKGSGFTFGDYAIGWVRQAPGQRLEWIGWINTNSGSPKYAQGFTGRFTISRDNSKNTLYLQMNSLRAEDTAVYYCATDVVVPWGQGSQVTVSS | 2 | 71.1 | 0.0024 | 33000 | 6.6 ± 0.2
3 | VH 3 (VHH, Human single VH domain antibody (not a camelid VHH); Monomeric by SEC; also called clone 3; anti-uPAR VH 3; source: E.coli TopF expression system, purified on Ni-NTA columns) VHH: EVQLVESGGGLVQPGGSLRLSCAASGFTFSRYWMSWVRQAPGKALEWIGEINHSGSTNYNPSLKSLVTISRDNSKNTLYLQMNSLRAEDTATYYCARSLVPALSYYYYYGMDVWGQGTTVTVSS | – | 17.1 | 0.0014 | 79000 | 12.1 ± 0.8
4 | VH-Fc 3 (Fc fusion, human, VH 3 domain, as m1; VH cloned into the pcDNA-IgG1 Fc vector; source: Expi293, transiently transfected, purified by protein A resin; not shown: Fc (human IgG1), C-terminal, kept) VH: EVQLVESGGGLVQPGGSLRLSCAASGFTFSRYWMSWVRQAPGKALEWIGEINHSGSTNYNPSLKSLVTISRDNSKNTLYLQMNSLRAEDTATYYCARSLVPALSYYYYYGMDVWGQGTTVTVSS | – | 9.6 | 0.0012 | 120000 | 64.3 ± 2.3
